± gives the standard deviation of the averaged measurements.
What was measured:
Saccharomyces cerevisiae [1] = experiment: protein stability index of tFT-peptide fusion in wild type (PSI (0-1 scale)); higher = more stable (slower turnover); conditions: genetic background: wild type
Protocol: (§1)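 MPS profiling in S. cerevisiae of two library types built from selected 12-aa C-degron peptides (IN1, IN2, LN1, LN3, VN2, R1-R5, W1-W3, Atg1 and Rpa12 C-termini): saturation mutagenesis libraries and C-terminal +1 capping libraries (13 aa). Each peptide is fused to the C-terminus of a sfGFP-mCherry timer, after a GGGS linker. Cells are FACS-sorted into 8 mCherry/sfGFP bins and sequenced. PSI runs from 0 (unstable) to 1 (stable), measured once in wild type and in the das1Δ or doa10Δ background.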

Saccharomyces cerevisiae [2] = experiment: protein stability index of tFT-peptide fusion in deletion strain of DAS1 (PSI (0-1 scale)); higher = more stable (slower turnover)
Protocol: as §1

Saccharomyces cerevisiae [3] = experiment: protein stability index of tFT-peptide fusion (C-terminal peptide) (PSI (0-1 scale)); higher = more stable (slower turnover); conditions: temperature: 30 C
Protocol: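 MPS profiling in S. cerevisiae of the yeast C-terminome library: the last 12 aa of each annotated ORF are fused to the C-terminus of a sfGFP-mCherry timer, after a GGGS linker. Cells are FACS-sorted into 8 mCherry/sfGFP bins and deep-sequenced. PSI runs from 0 (unstable) to 1 (stable); wild type and das1Δ backgrounds, two technical replicates each.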

[4] = genetic background: das1 deletion
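Wherever protein stability index of tFT-peptide fusion in deletion strain of DAS1 is given: PSI is a weighted mean of each variant's read distribution over the sorted stability bins, computed only for variants having over 10 reads in total.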
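Wherever protein stability index of tFT-peptide fusion in wild type is given: PSI derived as read-weighted mean over the 8 sorting bins, only variants exceeding 10 total reads kept, mCherry placed adjacent to the peptide and sfGFP distal.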

Sequence | protein stability index (Saccharomyces cerevisiae [1]) | protein stability index (Saccharomyces cerevisiae [2]) | protein stability index (Saccharomyces cerevisiae [3]; [4]) | protein stability index (Saccharomyces cerevisiae [3]; genetic background: wild type)
CTSCLYKFRTNN | 0.185 | 0.675 | – | –
KKHRKGQKQKIN | 0.109 | 0.678 | – | –
CTSCGIKFRTNN | 0.376 | 0.688 | – | –
CHSCGYKFRTNN | 0.212 | 0.715 | – | –
PSLAAPFWRVVG | 0.182 | 0.696 | – | –
CTSCGYKFRTLN | 0.132 | 0.696 | – | –
LKILRQKMNHQNY | 0.595 | 0.705 | – | –
LVVYLDCVACIN | 0.0395 | 0.119 | – | –
PSLAASFWWVVG | 0.582 | 0.718 | – | –
PNKRNHLIKLLN | 0.0744 | 0.597 | – | –
ARWRVGLWRWAS | 0.0999 | 0.694 | – | –
PDKRNHLIKLRN | 0.623 | 0.672 | – | –
TRGAVGGWRLVG | 0.162 | 0.68 | – | –
FSMRWTARYWVN | 0.0802 | 0.513 | – | –
YSMRWTFRYWVN | 0.042 | 0.495 | – | –
CTSCGYYFRTNN | 0.283 | 0.697 | – | –
PSFAASFWRVVG | 0.148 | 0.703 | – | –
LVVYLCCVACIN | 0.0154 | 0.0405 | – | –
VRGAVGGWRLVGN | 0.639 | 0.67 | – | –
LKILRQKMNAQN | 0.208 | 0.671 | – | –
CSMRWTFRYWVN | 0.0623 | 0.573 | – | –
LYVYLSCVACIN | 0.0152 | 0.0144 | – | –
RLIKPLPVQFLN | 0.0432 | 0.627 | – | –

Sequence | protein stability index (Saccharomyces cerevisiae [1]) | protein stability index (Saccharomyces cerevisiae [2]) | protein stability index (Saccharomyces cerevisiae [3]; [4]) | protein stability index (Saccharomyces cerevisiae [3]; genetic background: wild type)
LKFLRQKMNHQN | 0.166 | 0.697 | – | –
PDKRNHLIKLLNH | 0.142 | 0.669 | – | –
PDPRNHLIKLLN | 0.15 | 0.582 | – | –
PSLAASFWRIVG | 0.143 | 0.675 | – | –
KKHKCGQKQKIN | 0.0807 | 0.582 | – | –
ARWRVGLWRGASP | 0.663 | 0.672 | – | –
KKHKKGQKQKINQ | 0.644 | 0.664 | – | –
ARRRVGLWRGAS | 0.538 | 0.723 | – | –
LKIIRQKMNHQN | 0.204 | 0.718 | – | –
FSMRQTFRYWVN | 0.0909 | 0.558 | – | –
FSMRWTFRYWYN | 0.149 | 0.48 | – | –
PDKRNGLIKLLN | 0.222 | 0.614 | – | –
PSLAASFWKVVG | 0.31 | 0.674 | – | –
KKEKKGQKQKIN | 0.0774 | 0.578 | – | –
RLIQPLPVQFLG | 0.35 | 0.6 | – | –
TVNYLHRLLETD [ISN1 C-terminal 12 aa] | – | – | 0.73 ± 0.009 | 0.721 ± 0.039
WEKFIELEKNYK [MST1 C-terminal 12 aa] | – | – | 0.696 ± 0.0078 | 0.799 ± 0.04
MGVVAAVGVALL [ECM33 C-terminal 12 aa] | – | – | 0.678 ± 0.019 | 0.642 ± 0.0081
NSKVMNIKALDH [MRPL10 C-terminal 12 aa] | – | – | 0.6653 ± 0.0031 | 0.6725 ± 0.0055
AFLKIFENAMPN [ADD37 C-terminal 12 aa] | – | – | 0.725 ± 0.019 | 0.678 ± 0.0089
YEKVVELWNKVV [MNT4 C-terminal 12 aa] | – | – | 0.701 ± 0.018 | 0.199 ± 0.0098
VSPYDYNHKRVS [DIB1 C-terminal 12 aa] | – | – | 0.69264 ± 0.00023 | 0.678 ± 0.035
FAGENFHHGDKL [ENO1 C-terminal 12 aa] | – | – | 0.707 ± 0.016 | 0.706 ± 0.0078

Sequence | protein stability index (Saccharomyces cerevisiae [1]) | protein stability index (Saccharomyces cerevisiae [2]) | protein stability index (Saccharomyces cerevisiae [3]; [4]) | protein stability index (Saccharomyces cerevisiae [3]; genetic background: wild type)
HLTKLCIFPGLP [YLR282C C-terminal 12 aa] | – | – | 0.68857 ± 5.1e-05 | 0.70209 ± 0.00069
PLALFYSHLILL [YGR151C C-terminal 12 aa] | – | – | 0.6 ± 0.019 | 0.27 ± 0.016
ALNGDCCLWRWV [SWD3 C-terminal 12 aa] | – | – | 0.708 ± 0.015 | 0.292 ± 0.013
WTLLSRFLDREW [ATG36 C-terminal 12 aa] | – | – | 0.684 ± 0.015 | 0.6939 ± 0.0011
EMVKKHALNGRI [NRS1 C-terminal 12 aa] | – | – | 0.7115 ± 0.004 | 0.671 ± 0.025
LDSVFSKFCIGK [MSS1 C-terminal 12 aa] | – | – | 0.7 ± 0.0095 | 0.703 ± 0.082
EANNLLNIIKGN [MRP51 C-terminal 12 aa] | – | – | 0.6795 ± 0.0042 | 0.294 ± 0.035
LENIKKAKEFFQ [GTR1 C-terminal 12 aa] | – | – | 0.726 ± 0.012 | 0.705 ± 0.027
RVRRRLFAPEST [SLD3 C-terminal 12 aa] | – | – | 0.716 ± 0.018 | 0.802 ± 0.075
GAGALAAAAMLL [CWP2 C-terminal 12 aa] | – | – | 0.711 ± 0.032 | 0.665 ± 0.027
KERSHHFVRNMN [YKL102C C-terminal 12 aa] | – | – | 0.707 ± 0.0071 | 0.637 ± 0.048
FAAVSFVLGTGI [NCW1 C-terminal 12 aa] | – | – | 0.714 ± 0.008 | 0.709 ± 0.017
EVHALNRDHLVA [YHR138C C-terminal 12 aa] | – | – | 0.692 ± 0.0076 | 0.674 ± 0.023
LSRYTRVLLMFM [YBR178W C-terminal 12 aa] | – | – | 0.632 ± 0.02 | 0.455 ± 0.014
NLEFETEHNVTN [NDC80 C-terminal 12 aa] | – | – | 0.677 ± 0.012 | 0.708 ± 0.013
DDFKKAFREKRK [ALY1 C-terminal 12 aa] | – | – | 0.729 ± 0.013 | 0.676 ± 0.044
EEKKKKKIAESK [TIM50 C-terminal 12 aa] | – | – | 0.681 ± 0.06 | 0.64 ± 0.044
EELKKLSNPDMN [CUP9 C-terminal 12 aa] | – | – | 0.713 ± 0.059 | 0.686 ± 0.0076
SEVKGYSKLNIV [ASI3 C-terminal 12 aa] | – | – | 0.695 ± 0.026 | 0.668 ± 0.035
EMEKNKLKRKRN [YNG2 C-terminal 12 aa] | – | – | 0.668 ± 0.054 | 0.699 ± 0.014
RNRLENISTMVI [YIA6 C-terminal 12 aa] | – | – | 0.71 ± 0.012 | 0.709 ± 0.019
TVPGDENKITKK [PDR12 C-terminal 12 aa] | – | – | 0.711 ± 0.017 | 0.654 ± 0.064
AKERLNPPSNRR [NIP1 C-terminal 12 aa] | – | – | 0.708 ± 0.014 | 0.688 ± 0.02

Sequence | protein stability index (Saccharomyces cerevisiae [1]) | protein stability index (Saccharomyces cerevisiae [2]) | protein stability index (Saccharomyces cerevisiae [3]; [4]) | protein stability index (Saccharomyces cerevisiae [3]; genetic background: wild type)
NLELGGLNMDFL [PGD1 C-terminal 12 aa] | – | – | 0.7171 ± 0.0022 | 0.708 ± 0.047
RGFSFMPDDLDL [PKC1 C-terminal 12 aa] | – | – | 0.722 ± 0.013 | 0.72 ± 0.028
AYQIRQEVLQSL [SGA1 C-terminal 12 aa] | – | – | 0.65923 ± 0.00056 | 0.672 ± 0.012
TTDEEVKEKKKR [GLE2 C-terminal 12 aa] | – | – | 0.6893 ± 0.0049 | 0.692 ± 0.028
LKNGDKPHLLKF [RPL6B C-terminal 12 aa] | – | – | 0.714 ± 0.038 | 0.686 ± 0.015
ICCQVAKSLLKI [YGL074C C-terminal 12 aa] | – | – | 0.656 ± 0.016 | 0.688 ± 0.027
KSVRIAIDKPIR [ALD5 C-terminal 12 aa] | – | – | 0.696 ± 0.026 | 0.666 ± 0.018
RPWYVRQFHFWC [TAT2 C-terminal 12 aa] | – | – | 0.713 ± 0.0097 | 0.538 ± 0.011
DDEIDSEEDENA [SDD3 C-terminal 12 aa] | – | – | 0.69 ± 0.035 | 0.653 ± 0.018
LKILRQKMNHQN [ATG1 C-terminal 12 aa] | – | – | 0.686 ± 0.013 | 0.207 ± 0.042
IHSGYTNISYTI [MCM16 C-terminal 12 aa] | – | – | 0.709 ± 0.0077 | 0.7012 ± 0.0067
LMESEREARRLR [RPS28A C-terminal 12 aa] | – | – | 0.708 ± 0.01 | 0.6762 ± 0.0022
DKLAKLLSLDIH [MSH3 C-terminal 12 aa] | – | – | 0.7167 ± 0.0065 | 0.708 ± 0.025
HKQCDSLLDRLK [PTA1 C-terminal 12 aa] | – | – | 0.698 ± 0.024 | 0.7053 ± 0.0067
AVKINRNGKPRI [TAO3 C-terminal 12 aa] | – | – | 0.698 ± 0.014 | 0.6846 ± 0.0048
SKFGSIFKKVFG [YGR237C C-terminal 12 aa] | – | – | 0.689 ± 0.017 | 0.775 ± 0.077
WQLVDNYESGYE [YGL194C-A C-terminal 12 aa] | – | – | 0.7087 ± 0.0048 | 0.648 ± 0.031
VAFFKAVGATIM [YOR146W C-terminal 12 aa] | – | – | 0.625 ± 0.011 | 0.627 ± 0.054
GYCKVHPVSDSK [ASI1 C-terminal 12 aa] | – | – | 0.706 ± 0.0072 | 0.656 ± 0.036
SSTVESTNINME [MRT4 C-terminal 12 aa] | – | – | 0.6903 ± 0.0023 | 0.721 ± 0.00096

Source: the supplement of paper PMC10724198
